Reference: article PMC3167817

Experiments:
[1] = target: EGFR on A549 cells (endogenous) (human) (UniProt P00533); assay: cell binding, radiolabeled aptamer; details: A549 cells; binding decreased by EGFR shRNA and 1 uM EGF; 2'-fluoro pyrimidines; Filter binding: 1 nM radiolabeled RNA, PBS + 0.01% BSA, 15 min, 37 C (5 mM DTT for monomer); CL4sc background subtracted; pull-down: 200 nM aptamer on A549 …
[2] = target: EGFR on NIH/EGFR cells (human) (UniProt P00533); assay: cell binding, radiolabeled aptamer; details: apparent Kd; parental NIH3T3 not bound; 2'-fluoro pyrimidines; Filter binding: 1 nM radiolabeled RNA, PBS + 0.01% BSA, 15 min, 37 C (5 mM DTT for monomer); CL4sc background subtracted; pull-down: 200 nM aptamer on A549 …

## GCCUUAGUAACGUGCUUUGAUGUCGAUUCGACAGGAGGC [CL4]
[1]
  Kd: 0.038 µM
[2]
  Kd: 0.06 µM
